Values belong to the molecule of their own block, whether it stands above or below them.
How the values were obtained:
[1] = molecular target: pCRY-PHR D393S (amino acids 1-504) (Chlamydomonas reinhardtii); assay: SEC; Superdex 200 Increase 10/300 GL, under light exclusion at 4 °C, 50 mM Tris pH 7.8, 100 mM NaCl, 1 mM ATP, 1 mM MgCl2; samples at OD450 = 1; apparent masses from calibration
[2] = molecular target: T1, pCRY-PHR (plant cryptochrome pCRY, PHR domain) (Chlamydomonas reinhardtii, UniProt Q42696, D393S); assay: UV-vis absorbance and time-resolved UV-vis difference spectroscopy of purified protein; type: binding; details: 50 mM phosphate pH 7.8, 100 mM NaCl, 3 mM ATP, 1% glycerol, 10 °C, with or without 2 mM DTT; co-purified chromophore; time-resolved spectra at 13 °C without DTT
T1 construct: gene CPH1; PHR domain, amino acids 1-504, N-terminal His6 and C-terminal StrepII tags (printed for D393S), E. coli BL21(DE3), pET-28a(+); theoretical mass 59 kDa, wild type monomeric in the dark

[3] = molecular target: Region II mutations (V367M, K368E, Y399S, S401F, P405L) placed in the CRY2PHR background; assay: two-hybrid; BD-CRY2PHR (1-498) variants and AD-CIB1, AH109 x Y187, beta-galactosidase reporter (Miller Units, ONPG), dark for 2 h
[4] = molecular target: T2, CRY2PHR (residues 1-498 of CRY2, lacking the CCE), Gal4BD fusion, wild type (Arabidopsis thaliana, UniProt Q96524 1-498); assay: two-hybrid; BD-CRY2PHR (1-498) variants and AD-CIB1, AH109 x Y187, beta-galactosidase reporter (Miller Units, ONPG), light for 2 h; details: partners not purified
T2 construct: Cryptochrome 2 (CRY2), Arabidopsis thaliana, photolyase homology region, residues 1-498; also called BD-CRY2PHR; pDBTrp-CRY2PHR; source: yeast two-hybrid fusion (AH109 x Y187)
T2 sequence (Q96524 1-498): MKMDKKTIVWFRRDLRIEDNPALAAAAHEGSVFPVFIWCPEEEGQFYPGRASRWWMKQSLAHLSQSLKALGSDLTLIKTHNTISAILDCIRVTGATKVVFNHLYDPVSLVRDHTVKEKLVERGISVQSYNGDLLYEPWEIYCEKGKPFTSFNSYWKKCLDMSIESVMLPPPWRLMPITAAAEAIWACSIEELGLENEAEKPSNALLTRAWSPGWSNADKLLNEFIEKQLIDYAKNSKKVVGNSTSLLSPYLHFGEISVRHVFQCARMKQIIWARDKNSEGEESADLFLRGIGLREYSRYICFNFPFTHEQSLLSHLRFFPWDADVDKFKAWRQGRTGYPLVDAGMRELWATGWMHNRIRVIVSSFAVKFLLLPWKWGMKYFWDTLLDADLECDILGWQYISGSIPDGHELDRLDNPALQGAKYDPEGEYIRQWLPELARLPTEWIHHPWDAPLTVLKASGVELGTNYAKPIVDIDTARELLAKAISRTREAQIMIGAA

T1 sequence (Q42696 entry or part of it D393S): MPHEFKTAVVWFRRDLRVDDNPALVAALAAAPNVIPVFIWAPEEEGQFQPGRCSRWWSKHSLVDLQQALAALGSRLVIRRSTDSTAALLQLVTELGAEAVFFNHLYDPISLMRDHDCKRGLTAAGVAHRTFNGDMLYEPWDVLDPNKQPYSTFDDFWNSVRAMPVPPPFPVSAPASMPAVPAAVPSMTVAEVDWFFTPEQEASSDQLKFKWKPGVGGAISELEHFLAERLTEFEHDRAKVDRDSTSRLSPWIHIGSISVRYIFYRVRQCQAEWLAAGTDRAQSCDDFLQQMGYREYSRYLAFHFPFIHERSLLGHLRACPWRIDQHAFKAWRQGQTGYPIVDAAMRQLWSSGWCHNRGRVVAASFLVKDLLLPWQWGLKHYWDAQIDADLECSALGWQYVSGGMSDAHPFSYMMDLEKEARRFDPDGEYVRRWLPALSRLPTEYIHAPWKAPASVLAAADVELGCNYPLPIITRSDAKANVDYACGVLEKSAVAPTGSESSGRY

stoichiometry N [1]: 2
Molecule: pCRY-PHR D393S (amino acids 1-504) (domain or fragment)

Molecule: Cc1cc2nc3c(=O)[nH]c(=O)nc-3n(C[C@H](O)[C@H](O)[C@H](O)COP(=O)(O)OP(=O)(O)OC[C@H]3O[C@@H](n4cnc5c(N)ncnc54)[C@H](O)[C@@H]3O)c2cc1C [FAD]
UV-vis absorbance and time-resolved UV-vis difference spectroscopy of purified p [2]: The D393S mutant forms homomers in the dark with oxidized FAD bound

fold higher basal (dark) interaction than wild-type CRY2PHR (beta-galactosidase reporter) [3]: 4 to 7 fold
B1: CRYPTOCHROME-… BASIC-HELIX-LOOP-HELIX 1 (CIB1), Gal4AD fusion (natural protein)
chain: MNGAIGGDLLLNFPDMSVLERQRAHLKYLNPTFDSPLAGFFADSSMITGGEMDSYLSTAGLNLPMMYGETTVEGDSRLSISPETTLGTGNFKKRKFDTETKDCNEKKKKMTMNRDDLVEEGEEEKSKITEQNNGSTKSIKKMKHKAKKEENNFSNDSSKVTKELEKTDYIHVRARRGQATDSHSIAERVRREKISERMKFLQDLVPGCDKITGKAGMLDEIINYVQSLQRQIEFLSMKLAIVNPRPDFDMDDIFAKEVASTPMTVVPSPEMVLSGYSHEMVHSGYSSEMVNSGYLHVNPMQQVNTSSDPLSCFNNGEAPSMWDSHVQNLYGNLGV

fold increase of interaction (beta-galactosidase reporter) in light over dark [4]: 4 fold
B2: CRYPTOCHROME-INTERACTING BASIC-HELIX-LOOP-HELIX 1 (CIB1), Gal4AD fusion (natural protein, Arabidopsis thaliana, UniProt Q8GY61 1-335, looked up)
chain: B1 chain
notes: CIB1, transcription factor, Arabidopsis thaliana; also called GalAD-CIB1; Gal4AD-CIB1; source: yeast two-hybrid fusion (MaV203; Y187, mated to AH109)

Source: paper PMC12212125, “Constitutively active Arabidopsis cryptochrome two alleles identified using yeast selection and deep mutational scanning” (The Journal of Biological Chemistry, 2025)
